Test results: patent US12312641B2, “Sensitivity marker for antibody-drug conjugate” (priority 2018, dated 2025)

System: patient-derived xenograft (PDX) model
Test: Anti-tumor effect (TGI) in patient-derived xenograft models, 21 days after administration
Format: in vivo, nu/nu mice
Details: for TGI (%): 10 mg/kg tail vein, 21 days after administration; for Proportion of PDX models showing TGI of 75% or more: TGI at 21 days
Description: Mice: Female nu/nu mice (Envigo) aged 5-8 weeks were acclimatized under SPF conditions for 3 days or more prior to experimental use. Mice were fed with sterile solid feed (Teklad2919, Envigo) and given reverse osmosis membrane-treated water (containing 2 ppm chlorine).
Measurements and Calculation formula: long and short diameters of tumors were measured twice a week with an electronic digital caliper (CD-6PMX, Mitutoyo Corp.) and tumor volume (mm^3) was calculated using the following calculation formula: Tumor volume (mm^3)=0.52×Long diameter (mm)×[Short diameter (mm)]^2
Tumor fragments from each cancer patient were subcutaneously implanted into mice and passaged. The obtained tumors were used to subcutaneously implant tumor fragments, which were cut to approximately 5×5×5 mm^3, into the left abdomen of the female nu/nu mice, thereby each patient-derived xenograft (PDX) model was created. Mice were randomly grouped when the mean transplanted tumor volume reached 150 to 300 mm^3 (Day 0). On the same day as grouping, the antibody-drug conjugate (1) was administered into the tail vein at a dose of 10 mg/kg. A formulation buffer was similarly administered at a volume of 10 mL/kg as a negative control. Tumor growth inhibition rates (TGI (%)) were calculated according to the following calculation formula using each tumor volume 21 days after administration (Table 1). Tumor growth inhibition rate (%)=100×(1−Tf/mean Cf) • Tf: tumor volume 21 days after administration of antibody-drug conjugate (1) • mean Cf: arithmetic mean tumor volume 21 days after administration in negative control group mice
Data on the amount of gene expression in each PDX model used in Example 2 were obtained and normalized at Champions Oncology, Inc., thereby a RPKM value was obtained. To the RPKM value, 1 was added, and the sum was transformed to a logarithmic (log2) to obtain a log2[RPKM+1] value (Table 2). The log2[RPKM+1] value was used to analyze the relationship between the anti-tumor activity of antibody-drug conjugate (1) in each PDX model (Table 1) and the amount of expression of the hTROP2 gene and the SLFN11 gene. […] When TGI was 80% or more, the prediction rate decreased to an order of 60% only when the log2[RPKM+1] value of the hTROP2 gene exceeded 7.5 and the log2[RPKM+1] value of the SLFN11 gene exceeded 1.0 and was less than or equal to 2.

B1: antibody-drug conjugate (1): humanized anti-hTROP2 antibody (SEQ ID NO: 1 residues 20-470, SEQ ID NO: 2 residues 21-234) conjugated to the exatecan-derivative drug-linker via a thioether bond (conjugate, chains of the INN, looked up)
VH: QVQLVQSGAEVKKPGASVKVSCKASGYTFTTAGMQWVRQAPGQGLEWMGWINTHSGVPKYAEDFKGRVTISADTSTSTAYLQLSSLKSEDTAVYYCARSGFGSSYWYFDVWGQGTLVTVSS
VL: DIQMTQSPSSLSASVGDRVTITCKASQDVSTAVAWYQQKPGKAPKLLIYSASYRYTGVPSRFSGSGSGTDFTLTISSLQPEDFAVYYCQQHYITPLTFGQGTKLEIK
modifications: exatecan-derivative drug-linker
PDX model #1, Breast
  TGI (%): 98.1%
PDX model #2, Lung
  TGI (%): 77.3%
PDX model #3, Cholangiocarcinoma
  TGI (%): 48.0%
PDX model #4, Pancreatic
  TGI (%): 48.5%
PDX model #5, Colorectal
  TGI (%): 65.0%
PDX model #6, Breast
  TGI (%): 95.5%
PDX model #7, Breast
  TGI (%): 94.7%
PDX model #8, Head and neck
  TGI (%): 55.6%
PDX model #9, Head and neck
  TGI (%): 99.1%
PDX model #10, Lung
  TGI (%): 97.7%
PDX model #11, Lung
  TGI (%): 95.4%
PDX model #12, Breast
  TGI (%): 95.8%
PDX model #13, Lung
  TGI (%): 70.0%
PDX model #14, Breast
  TGI (%): 90.1%
PDX model #15, Cholangiocarcinoma
  TGI (%): 61.2%
PDX model #16, Colorectal
  TGI (%): 52.7%
PDX model #17, Breast
  TGI (%): 62.6%
PDX model #18, Lung
  TGI (%): 18.4%
PDX model #19, Lung
  TGI (%): 50.3%
log2[RPKM+1]: hTROP2 >6.5, SLFN11 >1, 10 models
  Proportion of PDX models showing TGI of 75% or more: 60%
log2[RPKM+1]: hTROP2 >6.5, SLFN11 >2, 6 models
  Proportion of PDX models showing TGI of 75% or more: 83%
log2[RPKM+1]: hTROP2 >6.5, SLFN11 >3, 3 models
  Proportion of PDX models showing TGI of 75% or more: 100%
log2[RPKM+1]: hTROP2 >6.5, SLFN11 All models, 15 models
  Proportion of PDX models showing TGI of 75% or more: 47%
log2[RPKM+1]: hTROP2 >7.0, SLFN11 >1, 9 models
  Proportion of PDX models showing TGI of 75% or more: 67%
log2[RPKM+1]: hTROP2 >7.0, SLFN11 >2, 6 models
  Proportion of PDX models showing TGI of 75% or more: 83%
log2[RPKM+1]: hTROP2 >7.0, SLFN11 >3, 3 models
  Proportion of PDX models showing TGI of 75% or more: 100%
log2[RPKM+1]: hTROP2 >7.0, SLFN11 All models, 11 models
  Proportion of PDX models showing TGI of 75% or more: 55%
log2[RPKM+1]: hTROP2 >7.5, SLFN11 >1, 6 models
  Proportion of PDX models showing TGI of 75% or more: 83%
log2[RPKM+1]: hTROP2 >7.5, SLFN11 >2, 4 models
  Proportion of PDX models showing TGI of 75% or more: 100%
log2[RPKM+1]: hTROP2 >7.5, SLFN11 >3, 2 models
  Proportion of PDX models showing TGI of 75% or more: 100%
log2[RPKM+1]: hTROP2 >7.5, SLFN11 All models, 8 models
  Proportion of PDX models showing TGI of 75% or more: 63%
log2[RPKM+1]: hTROP2 >8.0, SLFN11 >1, 5 models
  Proportion of PDX models showing TGI of 75% or more: 80%
log2[RPKM+1]: hTROP2 >8.0, SLFN11 >2, 3 models
  Proportion of PDX models showing TGI of 75% or more: 100%
log2[RPKM+1]: hTROP2 >8.0, SLFN11 >3, 2 models
  Proportion of PDX models showing TGI of 75% or more: 100%
log2[RPKM+1]: hTROP2 >8.0, SLFN11 All models, 7 models
  Proportion of PDX models showing TGI of 75% or more: 57%
log2[RPKM+1]: hTROP2 All models, SLFN11 >1, 13 models
  Proportion of PDX models showing TGI of 75% or more: 54%
log2[RPKM+1]: hTROP2 All models, SLFN11 >2, 9 models
  Proportion of PDX models showing TGI of 75% or more: 67%
log2[RPKM+1]: hTROP2 All models, SLFN11 >3, 5 models
  Proportion of PDX models showing TGI of 75% or more: 80%
log2[RPKM+1]: hTROP2 All models, SLFN11 All models, 19 models
  Proportion of PDX models showing TGI of 75% or more: 47%
log2[RPKM+1]: hTROP2 exceeded 7.5 and SLFN11 exceeded 1.0 and less than or equal to 2
  Prediction rate when TGI was 80% or more: ~60%
log2[RPKM+1]: hTROP2 exceeds 7.5 and SLFN11 exceeds 2.0, or hTROP2 exceeds 6.5 and SLFN11 exceeds 3.0
  Proportion of animal models showing TGI of 75% or more: 100%
